Assay results published in article PMC2756588.

T1: Abp1, P15891
T1 sequence (P15891 535-592, looked up): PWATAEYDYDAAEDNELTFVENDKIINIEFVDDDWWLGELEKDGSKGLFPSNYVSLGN

T2: Bbc1, P47068
T2 sequence (P47068 1-78, looked up): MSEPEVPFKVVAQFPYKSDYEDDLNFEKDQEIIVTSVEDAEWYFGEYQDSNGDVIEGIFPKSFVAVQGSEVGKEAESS

T3: Boi1, P38041
T3 sequence (P38041 1-86, looked up): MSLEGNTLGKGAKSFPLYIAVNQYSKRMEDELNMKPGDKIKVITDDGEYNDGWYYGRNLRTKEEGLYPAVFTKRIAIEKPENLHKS

T4: Boi2, P39969
T4 sequence (P39969 32-116, looked up): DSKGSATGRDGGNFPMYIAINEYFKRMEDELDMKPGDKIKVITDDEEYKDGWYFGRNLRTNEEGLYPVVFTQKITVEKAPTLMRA

T5: Bud14, P27637
T5 sequence (P27637 247-328, looked up): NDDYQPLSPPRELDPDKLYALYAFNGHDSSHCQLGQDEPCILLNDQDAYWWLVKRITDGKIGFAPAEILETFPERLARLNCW

T6: Bzz1-1, P38822
T6 sequence (P38822 478-572, looked up): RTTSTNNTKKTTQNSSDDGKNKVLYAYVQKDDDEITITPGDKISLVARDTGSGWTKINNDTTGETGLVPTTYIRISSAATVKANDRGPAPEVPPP

T7: Bzz1-2, P38822
T7 sequence (P38822 568-633, looked up): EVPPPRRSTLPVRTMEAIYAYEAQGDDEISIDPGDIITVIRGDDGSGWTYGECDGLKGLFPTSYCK

T8: Cdc25, P04821
T8 sequence (P04821 50-136, looked up): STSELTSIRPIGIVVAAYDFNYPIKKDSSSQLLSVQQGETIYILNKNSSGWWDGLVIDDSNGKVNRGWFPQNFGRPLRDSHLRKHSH

T9: Cyk3, Q07533
T9 sequence (Q07533 1-83, looked up): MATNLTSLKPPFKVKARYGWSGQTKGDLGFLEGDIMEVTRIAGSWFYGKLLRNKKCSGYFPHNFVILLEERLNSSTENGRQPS

T10: Fus1, P11710
T10 sequence (P11710 432-512, looked up): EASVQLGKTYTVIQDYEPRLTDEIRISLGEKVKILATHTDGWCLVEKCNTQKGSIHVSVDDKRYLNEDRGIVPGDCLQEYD

T11: Hof1, Q05080
T11 sequence (Q05080 590-669, looked up): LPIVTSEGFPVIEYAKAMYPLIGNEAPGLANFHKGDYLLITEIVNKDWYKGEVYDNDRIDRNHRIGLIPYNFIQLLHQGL

T12: Hse1, P38753
T12 sequence (P38753 208-285, looked up): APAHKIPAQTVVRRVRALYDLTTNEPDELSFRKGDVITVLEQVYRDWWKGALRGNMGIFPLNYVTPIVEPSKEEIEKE

T13: Lsb1, P53281
T13 sequence (P53281 45-122, looked up): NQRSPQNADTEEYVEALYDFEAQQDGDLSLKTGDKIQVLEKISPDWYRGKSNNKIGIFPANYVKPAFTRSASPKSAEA

T14: Lsb3, P43603
T14 sequence (P43603 385-451, looked up): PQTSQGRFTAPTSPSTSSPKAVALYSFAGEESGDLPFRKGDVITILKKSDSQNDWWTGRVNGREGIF

T15: Lsb4, P32793
T15 sequence (P32793 402-468, looked up): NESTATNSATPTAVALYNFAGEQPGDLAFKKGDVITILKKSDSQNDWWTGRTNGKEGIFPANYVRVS

T16: Myo5, Q04439
T16 sequence (Q04439 1072-1160, looked up): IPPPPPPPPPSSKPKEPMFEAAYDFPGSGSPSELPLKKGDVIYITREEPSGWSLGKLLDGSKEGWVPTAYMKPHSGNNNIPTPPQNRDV

T17: Nbp2, Q12163
T17 sequence (Q12163 103-180, looked up): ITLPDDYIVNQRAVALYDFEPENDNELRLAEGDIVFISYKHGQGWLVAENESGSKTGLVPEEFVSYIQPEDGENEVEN

T18: Pex13, P80667
T18 sequence (P80667 295-386, looked up): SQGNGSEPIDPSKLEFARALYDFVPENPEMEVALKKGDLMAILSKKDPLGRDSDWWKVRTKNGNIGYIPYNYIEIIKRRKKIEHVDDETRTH

T19: Pin3, Q06449
T19 sequence (Q06449 53-122, looked up): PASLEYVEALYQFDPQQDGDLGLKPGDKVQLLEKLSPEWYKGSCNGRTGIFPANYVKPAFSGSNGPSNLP

T20: Sla1-2, P32790
T20 sequence (P32790 60-140, looked up): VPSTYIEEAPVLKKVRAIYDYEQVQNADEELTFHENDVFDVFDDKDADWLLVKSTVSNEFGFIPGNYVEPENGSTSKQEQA

T21: Sla1-3, P32790
T21 sequence (P32790 344-424, looked up): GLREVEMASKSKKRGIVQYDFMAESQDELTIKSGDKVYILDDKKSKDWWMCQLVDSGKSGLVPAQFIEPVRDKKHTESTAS

B1: unnamed (peptide)
chain: FPGKKSPRLPHRNKK
B2: unnamed (peptide)
chain: STKKPRPPVKSKPKH
B3: unnamed (peptide)
chain: AAAPKHAPPPVPNET
B4: unnamed (peptide)
chain: APKHAPPPVPNETDN
B5: unnamed (peptide)
chain: TEVPIPRRPPPPQAA
B6: unnamed (peptide)
chain: VQKRKLPLPGSIASA

Key:
Assay in all cases: SPOT array
[1] = molecular target: T1, Abp1, P15891; details: median of control spots 935
[2] = molecular target: T2, Bbc1, P47068; details: median of control spots 796
[3] = molecular target: Bem1-1, P29366; details: median of control spots 4282
Bem1-1, P29366, sequence (P29366 55-141): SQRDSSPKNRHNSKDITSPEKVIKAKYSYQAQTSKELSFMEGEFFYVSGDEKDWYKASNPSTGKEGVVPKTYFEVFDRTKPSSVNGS

[4] = molecular target: Bem1-2, P29366; details: median of control spots 4347
Bem1-2, P29366, sequence (P29366 139-227): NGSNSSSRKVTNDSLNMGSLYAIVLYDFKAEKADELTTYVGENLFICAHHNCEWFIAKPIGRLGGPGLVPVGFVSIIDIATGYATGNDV

[5] = molecular target: T3, Boi1, P38041; details: median of control spots 1162
[6] = molecular target: T4, Boi2, P39969; details: median of control spots 1161
[7] = molecular target: T5, Bud14, P27637; details: median of control spots 956
[8] = molecular target: T6, Bzz1-1, P38822; details: median of control spots 4446
[9] = molecular target: T7, Bzz1-2, P38822; details: median of control spots 4538
[10] = molecular target: T8, Cdc25, P04821; details: median of control spots 969
[11] = molecular target: T9, Cyk3, Q07533; details: median of control spots 1451
[12] = molecular target: T10, Fus1, P11710; details: median of control spots 1200
[13] = molecular target: GST; details: median of control spots 978
[14] = molecular target: T11, Hof1, Q05080; details: median of control spots 4086
[15] = molecular target: T12, Hse1, P38753; details: median of control spots 1727
[16] = molecular target: T13, Lsb1, P53281; details: median of control spots 388
[17] = molecular target: T14, Lsb3, P43603; details: median of control spots 406
[18] = molecular target: T15, Lsb4, P32793; details: median of control spots 397
[19] = molecular target: Myo3, P36006; details: median of control spots 468
[20] = molecular target: T16, Myo5, Q04439; details: median of control spots 471
[21] = molecular target: T17, Nbp2, Q12163; details: median of control spots 357
[22] = molecular target: T18, Pex13, P80667; details: median of control spots 1341
[23] = molecular target: T19, Pin3, Q06449; details: median of control spots 2171
[24] = molecular target: Rvs167, P39743; details: median of control spots 2707
Rvs167, P39743, sequence (P39743 419-482): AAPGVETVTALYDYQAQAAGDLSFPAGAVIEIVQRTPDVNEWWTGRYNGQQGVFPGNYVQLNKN

[25] = molecular target: Sho1, P40073; details: median of control spots 1148
Sho1, P40073, sequence (P40073 287-367): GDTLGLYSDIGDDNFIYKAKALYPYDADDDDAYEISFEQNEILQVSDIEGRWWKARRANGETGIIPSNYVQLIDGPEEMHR

[26] = molecular target: T20, Sla1-2, P32790; details: median of control spots 712
[27] = molecular target: T21, Sla1-3, P32790; details: median of control spots 5475

| Binder | SPOT intensity [1] | SPOT intensity [2] | SPOT intensity [3] | SPOT intensity [4] | SPOT intensity [5] | SPOT intensity [6] | SPOT intensity [7] | SPOT intensity [8] | SPOT intensity [9] | SPOT intensity [10] | SPOT intensity [11] | SPOT intensity [12] | SPOT intensity [13] | SPOT intensity [14] | SPOT intensity [15] | SPOT intensity [16] | SPOT intensity [17] | SPOT intensity [18] | SPOT intensity [19] | SPOT intensity [20] | other results |
| --- | --- | --- | --- | --- | --- | --- | --- | --- | --- | --- | --- | --- | --- | --- | --- | --- | --- | --- | --- | --- | --- |
| B1 | 175 | 13 | 0 | 0 | 7 | 0 | 22 | 0 | 5 | 35 | 3 | 0 | 1 | 1 | 8 | 5 | 155 | 225 | 0 | 0 | SPOT intensity [21]: 0; SPOT intensity [22]: 16; SPOT intensity [23]: 0; SPOT intensity [24]: 314; SPOT intensity [25]: 84; SPOT intensity [26]: 0; SPOT intensity [27]: 12 |
| B2 | 397 | 3 | 0 | 2 | 0 | 1 | 3 | 1 | 5 | 0 | 3 | 1 | 2 | 0 | 1 | 0 | 0 | 0 | 0 | 0 | SPOT intensity [21]: 0; SPOT intensity [22]: 0; SPOT intensity [23]: 0; SPOT intensity [24]: 12; SPOT intensity [25]: 12; SPOT intensity [26]: 0; SPOT intensity [27]: 5 |
| B3 | 0 | 0 | 0 | 84 | 0 | 0 | 0 | 0 | 0 | 0 | 0 | 0 | 0 | 0 | 13 | 0 | 0 | 0 | 557 | 376 | SPOT intensity [21]: 0; SPOT intensity [22]: 0; SPOT intensity [23]: 0; SPOT intensity [24]: 0; SPOT intensity [25]: 0; SPOT intensity [26]: 0; SPOT intensity [27]: 0 |
| B4 | 0 | 0 | 0 | 0 | 0 | 0 | 0 | 0 | 0 | 0 | 0 | 0 | 0 | 0 | 3 | 0 | 0 | 0 | 497 | 239 | SPOT intensity [21]: 0; SPOT intensity [22]: 0; SPOT intensity [23]: 0; SPOT intensity [24]: 0; SPOT intensity [25]: 0; SPOT intensity [26]: 0; SPOT intensity [27]: 0 |
| B5 | 0 | 3 | 3 | 0 | 0 | 0 | 0 | 12 | 0 | 0 | 0 | 0 | 3 | 0 | 0 | 0 | 46 | 108 | 367 | 141 | SPOT intensity [21]: 0; SPOT intensity [22]: 0; SPOT intensity [23]: 0; SPOT intensity [24]: 0; SPOT intensity [25]: 0; SPOT intensity [26]: 0; SPOT intensity [27]: 0 |
| B6 | 157 | 23 | 0 | 1 | 0 | 0 | 0 | 0 | 0 | 18 | 0 | 0 | 0 | 0 | 0 | 0 | 1 | 13 | 0 | 0 | SPOT intensity [21]: 1; SPOT intensity [22]: 0; SPOT intensity [23]: 0; SPOT intensity [24]: 0; SPOT intensity [25]: 11; SPOT intensity [26]: 0; SPOT intensity [27]: 4 |
